Biological target: T1, Ku70_1-250 mutant (N-terminal alpha/beta-domain of Ku70) with N-terminal GST-tag (human, UniProt P12956 1-250)
T1 construct: Ku70, human, residues 1-250 (N-terminal alpha/beta domain); also called Ku_1-250; Ku70 N-terminal domain; not shown: GST, N-terminal, kept
Experiment: pull-down; GST-pull-down: GST-Ku70 proteins (or GST) held on glutathione-agarose, His6-IN proteins as prey; buffer A (20 mM Hepes pH 7.5, 100 mM NaCl, 7.5 mM MgCl2, 2 mM 2-mercaptoethanol, 50 ug/ml BSA, 0.1% NP40), room temperature, Western blot; Kd from increasing IN at 50 nM Ku70 mutant
Conditions: both partners purified

T1 sequence (P12956 1-250, change not shown): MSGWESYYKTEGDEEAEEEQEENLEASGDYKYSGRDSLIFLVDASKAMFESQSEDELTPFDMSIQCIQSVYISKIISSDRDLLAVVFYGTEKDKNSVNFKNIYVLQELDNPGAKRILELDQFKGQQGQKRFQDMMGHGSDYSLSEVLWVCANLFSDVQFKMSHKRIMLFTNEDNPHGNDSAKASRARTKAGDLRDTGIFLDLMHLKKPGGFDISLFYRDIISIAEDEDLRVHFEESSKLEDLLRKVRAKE

B1: IN_1-220 (HIV-1 integrase with truncated C-terminal domain), N-terminal His6-tag (domain or fragment)
chain: FLDGIDKAQDEHEKYHSNWRAMASDFNLPPVVAKEIVASCDKCQLKGEAMHGQVDCSPGIWQLDCTHLEGKVILVAVHVASGYIEAEVIPAETGQETAYFLLKLAGRWPVKTIHTDNGSNFTGATVRAACWWAGIKQEFGIPYNPQSQGVVESMNKELKKIIGQVRDQAEHLKTAVQMAVFIHNFKRKGGIGGYSAGERIVDIIATDIQTKELQKQITKI
notes: not shown: His6, N-terminal, kept
Question: Which Kd does the source give for B1 here?
Answer: Its Kd is 120 ± 30 nM.
